Assays:
[1] = target: T1, 6xHis-MBP-NHR-25 DBD (unmodified) (Caenorhabditis elegans, UniProt Q19345 1-173); assay: EMSA; 500 nM protein, 1 uM DNA; 50 mM Tris pH 8.0, 150 mM NaCl, 10 mM MgCl2, 10 mM DTT, 10 mM ATP, 400 ug/ml BSA, 1 uM dsDNA, 500 nM protein (200-700 nM titration), room temperature 30 min; 4-20% TBE gel, SYBR Gold; details: protein: recombinant, tags: N-terminal 6xHis-MBP
T1 sequence: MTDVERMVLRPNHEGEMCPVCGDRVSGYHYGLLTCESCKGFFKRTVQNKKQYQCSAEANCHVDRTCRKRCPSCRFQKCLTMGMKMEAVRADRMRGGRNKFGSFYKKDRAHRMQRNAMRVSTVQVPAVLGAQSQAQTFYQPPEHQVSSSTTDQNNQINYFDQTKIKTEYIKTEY

[2] = target: T1, 6xHis-MBP-NHR-25 DBD (unmodified); assay: EMSA; 1 uM DNA; 50 mM Tris pH 8.0, 150 mM NaCl, 10 mM MgCl2, 10 mM DTT, 10 mM ATP, 400 ug/ml BSA, 1 uM dsDNA, 500 nM protein (200-700 nM titration), room temperature 30 min; 4-20% TBE gel, SYBR Gold; details: protein: recombinant; tags: N-terminal 6xHis-MBP; blunt

B1: CYP11A1 (dsDNA)
DNA 1: ACATTTTATCAGCTTCTGGTATGGCCTTGAGCTGGTAGTTATAATCTTGGC
DNA 2: GCCAAGATTATAACTACCAGCTCAAGGCCATACCAGAAGCTGATAAAATGT
binding result ([1]; blunt): binds

B2: 2xNR5RE WT (dsDNA)
DNA 1: CTAAAGGGAGCCAAGGTCATAGCGGCCAGTCAAGGCCAAGGGCGACAG
DNA 2: CTGTCGCCCTTGGCCTTGACTGGCCGCTATGACCTTGGCTCCCTTTAG
binding result [2]: binds

B3: MIS WT (dsDNA)
DNA 1: GATCCGCCAGGCACTGTCCCCCAAGGTCACCTTTGGTGTTGATAAGATCCC
DNA 2: TCGAGGGATCTTATCAACACCAAAGGTGACCTTGGGGGACAGTGCCTGGCG
binding result ([1]; 5' overhangs 4 nt on both strands): binds

Reference: paper PMC3861103
